Measurements published in article PMC5538626 (EMBO Reports, 2017).
Ends that are not written are not given here.

Tests used:
Assay in all cases: ELISA; called peptide array: biotinylated peptides immobilised on streptavidin-coated 96-well plates; 1 μM His6-mATG8 in PBS, 0.1% Tween-20, 1% BSA, 1 h, 8°C; anti-His-HRP, TMB, absorbance at 450 nm
Settings in all cases: both partners purified
6xHis‐tagged GABARAP = molecular target: T1, 6xHis‐tagged GABARAP (human, UniProt O95166 1-117)
T1 construct: GABARAP, human; also called His6‐GABARAP; source: E. coli, isolated

6xHis‐tagged LC3B = 6xHis‐tagged LC3B (human, UniProt Q9GZQ8 1-120)
6xHis‐tagged GABARAP‐L2 = molecular target: T2, 6xHis‐tagged GABARAP‐L2 (human, UniProt P60520 1-117)
T2 construct: GABARAP-L2/GATE-16, human; also called His6‐GABARAP‐L2; GATE‐16; source: E. coli, isolated

6xHis‐tagged GABARAP‐L1 = molecular target: T3, 6xHis‐tagged GABARAP‐L1 (human, UniProt Q9H0R8 1-117)
T3 construct: GABARAP-L1, human; also called His6‐GABARAP‐L1; source: E. coli, isolated
T3 sequence (Q9H0R8 whole entry, looked up): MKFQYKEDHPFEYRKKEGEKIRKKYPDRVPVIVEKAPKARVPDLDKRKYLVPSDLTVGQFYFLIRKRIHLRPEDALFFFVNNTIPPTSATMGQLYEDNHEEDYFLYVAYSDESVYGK

T1 sequence (O95166 whole entry): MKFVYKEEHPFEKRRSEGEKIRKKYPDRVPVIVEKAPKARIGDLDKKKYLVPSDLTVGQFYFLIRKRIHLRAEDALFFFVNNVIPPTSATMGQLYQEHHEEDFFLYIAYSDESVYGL
T2 sequence (P60520 whole entry): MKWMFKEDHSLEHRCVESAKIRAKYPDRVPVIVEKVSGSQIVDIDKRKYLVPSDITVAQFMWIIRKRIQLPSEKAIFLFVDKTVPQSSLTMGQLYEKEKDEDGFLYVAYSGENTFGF

| Binder | binding result (6xHis‐tagged GABARAP) | binding result (6xHis‐tagged LC3B) | binding result (6xHis‐tagged GABARAP‐L2) | binding result (6xHis‐tagged GABARAP‐L1) |
| --- | --- | --- | --- | --- |
| SRVYQMILE (also: biotinylated, printed as MAP15K; source: bought: JPT (biotinylated peptide)) [MAP15K LIR peptide (337–345), biotinylated] | binds | binds | – | – |
| SFGWLSLDG (also: biotinylated, c-CBL LIR; source: bought: JPT (biotinylated peptide)) [c‐CBL LIR peptide (799–807), biotinylated] | binds | binds | – | – |
| DDSYEVLDL (also: biotinylated, FUNDC1 LIR; source: bought: JPT (biotinylated peptide)) [FUNDC1 LIR peptide (printed positions 152–160), biotinylated] | – | binds | – | – |
| GDDFELLDQ (also: biotinylated, FAM134B LIR; source: bought: JPT (biotinylated peptide)) [FAM134B LIR peptide (452–460), biotinylated] | binds | binds | – | – |
| ESDWVAVRP (also: biotinylated, JMY LIR; source: bought: JPT (biotinylated peptide)) [JMY LIR peptide (10–18), biotinylated] | binds | – | – | – |
| LEDWDIISP (also: biotinylated, TBC1D25 LIR; source: bought: JPT (biotinylated peptide)) [TBC1D25 LIR peptide (133–141), biotinylated] | binds | binds | – | – |
| RKEWEELFV (also: biotinylated, TBC1D5 LIR1; source: bought: JPT (biotinylated peptide)) [TBC1D5 (LIR1) peptide (55–63), biotinylated] | binds | – | – | – |
| TFDFETIPH (also: biotinylated, FIP200 LIR; source: bought: JPT (biotinylated peptide)) [FIP200 LIR peptide (699–707), biotinylated] | binds | binds | – | – |
| EDEWVAVQY (peptide, UniProt Q9Y4G2 632-640, looked up, also: biotinylated, PLEKHM1 LIR; source: bought: JPT (biotinylated peptide)) [PLEKHM1‐LIR N637A peptide (biotinylated 9-mer)] | binds | – | binds | binds |
| TLTYDTLRF (also: biotinylated, ATG4B LIR; source: bought: JPT (biotinylated peptide)) [ATG4B LIR peptide (4–12), biotinylated] | binds | binds | – | – |
| VDGWLIIDL (also: biotinylated, TP53INP2/DOR LIR; source: bought: JPT (biotinylated peptide)) [TP53INP2/DOR LIR peptide (32–40), biotinylated] | binds | binds | – | – |
| DSGFTIVSP (also: biotinylated, TBC1D5 LIR2; source: bought: JPT (biotinylated peptide)) [TBC1D5 (LIR2) peptide (785–793), biotinylated] | binds | binds | – | – |
| NSSWVELPM (also: biotinylated, NIX LIR; also called Nix/BNIP3L; source: bought: JPT (biotinylated peptide)) [NIX/BNIPL3 LIR peptide (33–41), biotinylated] | binds | binds | – | – |
| EDEWVKVQY (peptide, UniProt Q9Y4G2 632-640, looked up, also: biotinylated, PLEKHM1 LIR; source: bought: JPT (biotinylated peptide)) [PLEKHM1‐LIR N637K peptide (biotinylated 9-mer)] | binds | – | binds | binds |
| EDEWVNAQY (peptide, UniProt Q9Y4G2 632-640, looked up, also: biotinylated, PLEKHM1 LIR; source: bought: JPT (biotinylated peptide)) [PLEKHM1‐LIR V638A peptide (biotinylated 9-mer)] | binds | – | binds | – |
| DAVFDIITD (also: biotinylated, FYCO1 LIR; source: bought: JPT (biotinylated peptide)) [FYCO1 LIR peptide (1277–1285), biotinylated] | binds | binds | – | – |
| DRMWLKITI (also: biotinylated, DVL2 LIR; source: bought: JPT (biotinylated peptide)) [DVL2 LIR peptide (441–449), biotinylated] | binds | binds | – | – |
| DDEWILVDF (also: biotinylated, TP53INP1 LIR; source: bought: JPT (biotinylated peptide)) [TP53INP1 LIR peptide (28–36), biotinylated] | binds | binds | – | – |

| Binder | binding result (6xHis‐tagged GABARAP) | binding result (6xHis‐tagged LC3B) | binding result (6xHis‐tagged GABARAP‐L2) | binding result (6xHis‐tagged GABARAP‐L1) |
| --- | --- | --- | --- | --- |
| NSDMLVVTT (also: biotinylated, Tax1BP1 LIR; source: bought: JPT (biotinylated peptide)) [Tax1BP1 LIR peptide (137–145), biotinylated] | binds | binds | – | – |
| SEDYIIILP (also: biotinylated, NBR1 LIR; source: bought: JPT (biotinylated peptide)) [NBR1 LIR peptide (729–737), biotinylated] | binds | – | – | – |
| HDDFVMIDF (also: biotinylated, ATG13 LIR; source: bought: JPT (biotinylated peptide)) [ATG13 LIR peptide (441–449), biotinylated] | binds | – | – | – |
| EEDILVVTT (also: biotinylated, NDP52 LIR; source: bought: JPT (biotinylated peptide)) [NDP52 LIR peptide (130–138), biotinylated] | binds | binds | – | – |
| EDEWVPVQY (peptide, UniProt Q9Y4G2 632-640, looked up, also: biotinylated, PLEKHM1 LIR; source: bought: JPT (biotinylated peptide)) [PLEKHM1‐LIR N637P peptide (biotinylated 9-mer)] | binds | – | binds | binds |
| TDDFVMVPA (also: biotinylated, ULK1 LIR; source: bought: JPT (biotinylated peptide)) [ULK1 LIR peptide (354–362), biotinylated] | binds | – | – | – |
| DLEDEWEVI (also: biotinylated, TECPR2 LIR; source: bought: JPT (biotinylated peptide)) [TECPR2 LIR peptide (1403–1411), biotinylated] | binds | binds | – | – |
| EDDWDFLPP (also: biotinylated, Calreticulin LIR; source: bought: JPT (biotinylated peptide)) [Calreticulin LIR peptide (197–205), biotinylated] | binds | binds | – | – |
| EDEWVGVQY (peptide, UniProt Q9Y4G2 632-640, looked up, also: biotinylated, PLEKHM1 LIR; source: bought: JPT (biotinylated peptide)) [PLEKHM1‐LIR N637G peptide (biotinylated 9-mer)] | binds | – | binds | binds |
| TPDWIFLLR (also: biotinylated, Clathrin HC1 LIR; source: bought: JPT (biotinylated peptide)) [Clathrin HC1 LIR peptide (511–519), biotinylated] | binds | – | – | – |
| DDFWVRVAP (also: biotinylated, KBTBD6 in the text; also called KBTBD6; KBTDB6; source: bought: JPT (biotinylated peptide)) [KTBD6 LIR peptide (665–673), biotinylated] | binds | – | – | – |
| EDEWANVQY (peptide, UniProt Q9Y4G2 632-640, looked up, also: biotinylated, PLEKHM1 LIR; source: bought: JPT (biotinylated peptide)) [PLEKHM1‐LIR V636A peptide (biotinylated 9-mer)] | binds | – | binds | – |
| EDSFVEIRM (also: biotinylated, OPTN LIR; source: bought: JPT (biotinylated peptide)) [OPTN LIR peptide (175–183), biotinylated] | binds | – | – | – |
| TDDFVLVPH (also: biotinylated, ULK2 LIR; source: bought: JPT (biotinylated peptide)) [ULK2 LIR peptide (350–358), biotinylated] | binds | – | – | – |
| PSHWPLIKA (also: biotinylated, β-Catenin LIR; source: bought: JPT (biotinylated peptide)) [β‐Catenin LIR peptide (501–509), biotinylated] | binds | binds | – | – |
| EDEWVRVQY (peptide, UniProt Q9Y4G2 632-640, looked up, also: biotinylated, PLEKHM1 LIR; source: bought: JPT (biotinylated peptide)) [PLEKHM1‐LIR N637R peptide (biotinylated 9-mer)] | binds | – | binds | binds |
| HEEWEMVPR (also: biotinylated, STBD1 LIR; source: bought: JPT (biotinylated peptide)) [STBD1 LIR peptide (200–208), biotinylated] | binds | – | – | – |
